Experimental findings from patent US20250326840A1 (QURE BIOTECHNOLOGY SHANGHAI, published 2025) are described below.

Assay [1] has as its target SIRPα V2 fusion Fc (mouse IgG2a) (human). The assay is described as follows: ELISA, SIRPα V2-mouse IgG2a Fc coated, anti-hFab detection; unit from the x axis Log(Conc.(nM)).
For a further assay, the target named is T1, QP002 (biotinylated in the blocking assays, sites not given).
T1 construct: also called SIRPα-FC; Biotin-QP002
The experiment in a line: blocking ELISA: QP001.2 (CD47) coated, biotin-QP002 (SIRPα-FC) mixed with the antibody, HRP-streptavidin; blocked ligand: CD47; unit from the x axis Log[Conc.(ug/ml)].

Assay [2] addresses T2, QP094 (human SIRPα V1 ECD(E31-R370)-flag-his) (human, UniProt P78324 31-370).
T2 construct: the construct carries flag and his tags; also called SIRPαV1-flag-his; SIRPαV1-his (QP094)
The assay is described as follows: SPR, Biacore 8K.

In the next assay the target is QP003 (PDL1-his). The assay is described as follows: ELISA, QP003 (PDL1-his) captured on coated anti-his, anti-hFc detection; unit from the x axis; no rising curve is seen for it, the fit is marked ambiguous (~).
Sequence of QP003 (PDL1-his) (chain, as listed by the source limits assumed): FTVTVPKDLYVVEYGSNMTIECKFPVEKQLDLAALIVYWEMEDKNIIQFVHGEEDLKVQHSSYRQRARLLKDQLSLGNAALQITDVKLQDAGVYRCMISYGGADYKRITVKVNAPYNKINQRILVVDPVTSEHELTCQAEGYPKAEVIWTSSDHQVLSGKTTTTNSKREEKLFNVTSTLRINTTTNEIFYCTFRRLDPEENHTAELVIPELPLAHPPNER
Assay [3] concerns the target SIRPα V7 fusion Fc (mouse IgG2a) (human). The assay is described as follows: ELISA, SIRPα V7-mouse IgG2a Fc coated, anti-hFab detection; unit from the x axis Log(Conc.(nM)).
For assay [4], the target named is T3, SIRPα V4 fusion Fc (mouse IgG2a) (human, limits assumed).
T3 chain: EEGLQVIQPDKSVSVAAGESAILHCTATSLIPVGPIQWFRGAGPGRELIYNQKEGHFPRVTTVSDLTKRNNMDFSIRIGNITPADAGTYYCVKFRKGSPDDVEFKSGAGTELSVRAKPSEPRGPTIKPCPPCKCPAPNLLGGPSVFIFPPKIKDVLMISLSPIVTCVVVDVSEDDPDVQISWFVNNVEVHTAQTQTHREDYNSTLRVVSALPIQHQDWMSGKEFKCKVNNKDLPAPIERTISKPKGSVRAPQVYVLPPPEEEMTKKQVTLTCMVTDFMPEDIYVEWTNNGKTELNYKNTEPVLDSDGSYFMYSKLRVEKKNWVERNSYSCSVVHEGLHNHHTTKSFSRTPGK
The experiment in a line: ELISA, SIRPα V4-mouse IgG2a Fc coated, anti-hFab detection; unit from the x axis Log(Conc.(nM)).

For assay [5], the target named is SIRPα V8 fusion Fc (mouse IgG2a) (human). The assay is described as follows: ELISA, SIRPα V8-mouse IgG2a Fc coated, anti-hFab detection; unit from the x axis Log(Conc.(nM)).
Assay [6] addresses SIRPα V3 fusion Fc (mouse IgG2a) (human). The assay is described as follows: ELISA, SIRPα V3-mouse IgG2a Fc coated, anti-hFab detection; unit from the x axis Log(Conc.(nM)).
Assay [7] deals with T2, QP094 (human SIRPα V1 …). The experiment in a line: binding ELISA, antigen coated.
The target of assay [8] is T4, QP096 (human SIRPα V2 ECD(E31-R370)-flag-his) (human).
T4 construct: the construct carries flag and his tags; also called SIRPαV2-Flag-his; Human SIRPα V2 (QP096)
T4 sequence (chain, as listed by the source limits assumed): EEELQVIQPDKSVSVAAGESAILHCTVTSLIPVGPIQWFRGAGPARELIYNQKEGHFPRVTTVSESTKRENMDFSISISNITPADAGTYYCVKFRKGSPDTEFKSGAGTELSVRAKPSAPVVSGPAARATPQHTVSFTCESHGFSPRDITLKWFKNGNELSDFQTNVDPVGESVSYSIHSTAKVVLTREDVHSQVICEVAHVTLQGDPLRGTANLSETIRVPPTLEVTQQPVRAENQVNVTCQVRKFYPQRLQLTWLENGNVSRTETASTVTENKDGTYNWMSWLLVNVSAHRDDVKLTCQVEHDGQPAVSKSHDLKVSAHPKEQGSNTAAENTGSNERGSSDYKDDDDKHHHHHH
The experiment in a line: binding ELISA, antigen coated.

In assay [9] the target is SIRPα V10 fusion Fc (mouse IgG2a) (human). The experiment in a line: ELISA, SIRPα V10-mouse IgG2a Fc coated, anti-hFab detection; unit from the x axis Log(Conc.(nM)).
The target of the assay “QP095 (human SIRPα V2 …)” is T5, QP095 (human SIRPα V2 ECD(E31-R370)-mFC(IgG2a)) (human).
T5 construct: also called human SIRPα V2 recombinant protein (QP095)
The assay is described as follows: ELISA, QP095 (SIRPα V2) coated, anti-hFab detection; unit from the x axis Log(Conc.(nM)).

In the assay “QP093 (human SIRPα V1 …)” the target is T6, QP093 (human SIRPα V1 ECD(E31-R370)-mFC(IgG2a)) (human).
T6 construct: also called Human SIRPα V1 recombinant protein (QP093)
T6 chain: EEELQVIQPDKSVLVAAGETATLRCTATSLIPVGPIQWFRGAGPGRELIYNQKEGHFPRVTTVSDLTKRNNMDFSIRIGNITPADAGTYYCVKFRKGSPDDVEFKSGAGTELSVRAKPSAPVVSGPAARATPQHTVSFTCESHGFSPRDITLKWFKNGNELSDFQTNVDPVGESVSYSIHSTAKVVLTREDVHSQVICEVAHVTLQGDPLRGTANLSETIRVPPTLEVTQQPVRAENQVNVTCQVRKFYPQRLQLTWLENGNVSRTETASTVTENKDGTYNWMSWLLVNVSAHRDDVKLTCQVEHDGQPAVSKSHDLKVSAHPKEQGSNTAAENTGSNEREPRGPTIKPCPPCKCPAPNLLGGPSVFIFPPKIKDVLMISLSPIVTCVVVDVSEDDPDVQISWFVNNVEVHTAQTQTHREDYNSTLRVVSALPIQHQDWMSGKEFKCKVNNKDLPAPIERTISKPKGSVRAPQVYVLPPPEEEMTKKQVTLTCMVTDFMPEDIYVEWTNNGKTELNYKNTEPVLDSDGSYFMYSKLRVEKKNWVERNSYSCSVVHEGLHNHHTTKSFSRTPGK
The experiment in a line: ELISA, QP093 (SIRPα V1) coated, anti-hFab detection; unit from the x axis Log(Conc.(nM)).

Assay [10] addresses T2, QP094 (human SIRPα V1 …). The assay is described as follows: SPR, Biacore.
The target of assay [11] is T4, QP096 (human SIRPα V2 …). The experiment in a line: SPR, Biacore.
Assay [12] has as its target SIRPα V2 fusion Fc (mouse IgG2a) (human). The experiment in a line: ELISA, SIRPα V2-mouse IgG2a Fc coated, anti-hFab detection; unit from the x axis; the curve is flat at the baseline, the fit is marked ambiguous (~).
Assay [13] has as its target SIRPα V3 fusion Fc (mouse IgG2a) (human). The assay is described as follows: ELISA, SIRPα V3-mouse IgG2a Fc coated, anti-hFab detection; unit from the x axis; the curve is flat at the baseline, the fit is marked ambiguous (~).

B1: QP026249 (KWAR23 analog) (antibody, human IgG4 S228P, kappa)
heavy: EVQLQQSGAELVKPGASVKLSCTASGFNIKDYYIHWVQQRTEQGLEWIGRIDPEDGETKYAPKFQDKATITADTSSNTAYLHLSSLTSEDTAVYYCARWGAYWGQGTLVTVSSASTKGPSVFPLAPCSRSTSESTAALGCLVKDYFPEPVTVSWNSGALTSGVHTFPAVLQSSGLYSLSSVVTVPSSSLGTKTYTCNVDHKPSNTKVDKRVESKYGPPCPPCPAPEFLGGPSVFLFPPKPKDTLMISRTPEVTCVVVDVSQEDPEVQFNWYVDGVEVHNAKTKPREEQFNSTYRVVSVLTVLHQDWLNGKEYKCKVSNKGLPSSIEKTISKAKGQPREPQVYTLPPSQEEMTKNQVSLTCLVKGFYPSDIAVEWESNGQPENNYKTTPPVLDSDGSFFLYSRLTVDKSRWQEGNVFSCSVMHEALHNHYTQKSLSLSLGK
light: QIVLTQSPAIMSASPGEKVTLTCSASSSVSSSYLYWYQQKPGSSPKLWIYSTSNLASGVPARFSGSGSGTSYSLTISSMEAEDAASYFCHQWSSYPRTFGAGTKLELKRTVAAPSVFIFPPSDEQLKSGTASVVCLLNNFYPREAKVQWKVDNALQSGNSQESVTEQDSKDSTYSLSSTLTLSKADYEKHKVYACEVTHQGLSSPVTKSFNRGEC
notes: also called KAWA23 analog; control antibody KWAR23 (QP026249), human IgG4
Turning to B1, the EC50 was 0.137 nM in [1]; ~0.000685 nM in the assay with QP003 (PDL1-his); 0.147 nM in assay [3]; 0.115 nM in [4]; 0.18 nM in assay [5]; 0.135 nM in assay [6]. Besides, the EC50 is 5.29 ng/mL in the assay with QP094 (human SIRPα V1 …) [7]; 3.31 ng/mL with QP096 (human SIRPα V2 …) [8]; 0.137 nM in [9]; 0.249 nM with QP095 (human SIRPα V2 …); 0.237 nM with QP093 (human SIRPα V1 …). The IC50 in the assay with QP002 was 45.4 ng/mL. Besides, the figures for the Kd in the assay with QP094 (human SIRPα V1 …) [2], with QP094 (human SIRPα V1 …) [10] and in the assay with QP096 (human SIRPα V2 …) [11] were 4.7 nM, 3.43 nM and 13.6 nM, respectively. The molecule further registered a koff with QP094 (human SIRPα V1 …) [2] of 0.00386 s⁻¹. Besides, the kon with QP094 (human SIRPα V1 …) [2] was determined as 822000 M⁻¹ s⁻¹.

B2: QP250251 (18D5 analog) (antibody, human IgG4 S228P, kappa, V domains shown)
VH: QVQLQQPGAELVRPGSSVKLSCKASGYTFTSYWVHWVKQRPIQGLEWIGNIDPSDSDTHYNQKFKDKASLTVDKSSSTAYMQLSSLTFEDSAVYYCVRGGTGTMAWFAYWGQGTLVTVSA
VL: DVVMTQTPLSLPVSLGDQASISCRSSQSLVHSYGNTYLYWYLQKPGQSPKLLIYRVSNRFSGVPDRFSGSGSGTDFTLKISRVEAEDLGVYFCFQGTHVPYTFGSGTKLEIKR
notes: also called SIRPα antibody 18D5 from OSE
Regarding B2, the EC50 in assay [4] is 0.125 nM; in [12], ~0.0554 nM; in assay [13], ~58.7 nM.

B3: QP256279 (antibody, human IgG4, V domains shown)
VH: QVQLVQSGAEVKKPGASVKVSCKASGYTFTNYWINWVRQAPGQGLEWIAMIDPSDSETHYNQIFKDRATLTTDTSTSTAYMELRSLRSDDTAVYYCAMDYGSLYAMDYWGRGTLVTVSS
VL: DIVLTQSPDSLAVSLGERATINCRASQSVRSSGYNWIFWYQQKPGQPPKLLIYLASNRDSGVPDRFSGSGSGTDFTLTISSLQAEDVAVYYCQHSRELPTFGQGTKLEIK
notes: Human IgG4 heavy constant region and kappa CL
B3: the EC50 in assay [1] turned out to be 0.0682 nM; in assay [3], 0.0707 nM; in assay [4], 0.0574 nM; in assay [5], 0.0851 nM; in assay [6], 0.0635 nM; with QP094 (human SIRPα V1 …) [7] it was 0.651 ng/mL. Also, the results for the EC50 (in the assay with QP096 (human SIRPα V2 …) [8]; in assay [9]) were 0.624 ng/mL and 0.0682 nM, respectively. For the same molecule, the IC50 in the assay with QP002 was 12.9 ng/mL. Also, the Kd with QP094 (human SIRPα V1 …) [10] turned out to be 0.0354 nM; in the assay with QP096 (human SIRPα V2 …) [11] it was 0.0446 nM.

B4: QP32700279 (antibody, human IgG1, kappa, L234A L235A, V domains shown)
VH: B3 VH
VL: DIVLTQSPDSLAVSLGERATINCRASQSVRSSGYNWIFWYQQKPGQPPKLLIYLASNRDSGVPDRFSGSGSGTDFTLTISSLQAEDVAVYYCQHSRELPTFGQGTKLEIKR
notes: also called SIRPα monoclonal antibody CHO71
On to B4, for which the EC50 is 0.16 nM with QP095 (human SIRPα V2 …) and 0.142 nM with QP093 (human SIRPα V1 …).
